Experimental data published in publication PMC3849214.

Test system: c1ccc([C@H]2CO2)cc1
Assay: colorimetric periodate-coupled diol assay, A290, steady state
Type: biochemical, Streptomyces globisporus
Settings: pH 8.0, 50 mM sodium phosphate, 25 °C, 3 mM sodium periodate

Q: Which results are given for SgcF (Streptomyces globisporus; Q237M)?
A: Km: 4.1 ± 0.8 mM; kcat/Km: 780 M⁻¹ s⁻¹
